The source of these data is PMC4861916, “Characterization of a Citrus R2R3-MYB Transcription Factor that Regulates the Flavonol and Hydroxycinnamic Acid Biosynthesis”.

In this data set the target is CsMYBF1 (Citrus, UniProt A0A125SL50 1-337). Briefly: EMSA; 0.1% Nonidet P-40, 1 mM benzamidine, 0.5 mM PMSF, 0.5 mM DTT, 50 ug/mL BSA, 100 ng/uL poly(dI-dC), 5 uM Cy3 probe, 1 ug protein in 20 uL, 4 C 2 h; 6% PAGE in 0.5x TBE at 4 C; salt and pH not stated. The note with it: protein: recombinant; tags: His (pET28a); label: Cy3. A general note: A gel shift assay detects complexes by their altered migration in electrophoresis.
Sequence of CsMYBF1 (A0A125SL50 entry or part of it): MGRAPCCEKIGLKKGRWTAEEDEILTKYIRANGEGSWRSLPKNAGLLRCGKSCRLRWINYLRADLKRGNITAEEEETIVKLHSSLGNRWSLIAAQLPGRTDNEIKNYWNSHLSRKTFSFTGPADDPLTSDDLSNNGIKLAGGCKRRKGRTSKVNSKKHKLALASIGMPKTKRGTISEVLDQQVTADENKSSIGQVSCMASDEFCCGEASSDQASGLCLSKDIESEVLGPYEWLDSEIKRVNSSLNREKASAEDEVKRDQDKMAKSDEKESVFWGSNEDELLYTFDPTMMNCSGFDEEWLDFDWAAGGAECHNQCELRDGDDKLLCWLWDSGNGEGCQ

B1: CsCHS promoter probe WT (dsDNA)
DNA 1: TTGATTTAACCTACCCCCATTG
DNA 2: CAATGGGGGTAGGTTAAATCAA
With B1, the binding result was “binds”.

B2: Cs4CL promoter probe mutant (dsDNA)
DNA 1: TTAACTGCTCTAGACACACCCA
DNA 2: TGGGTGTGTCTAGAGCAGTTAA
B2: the binding result is “no binding”.

B3: CsCHS promoter probe mutant (dsDNA)
DNA 1: TTGATTTCTAGAACCCCCATTG
DNA 2: CAATGGGGGTTCTAGAAATCAA
Consider B3, for which the binding result is listed as “no binding”.

B4: SlFLS promoter probe mutant (dsDNA)
DNA 1: CTTATATCGTCGACTCAACTTA
DNA 2: TAAGTTGAGTCGACGATATAAG
Consider B4, for which the binding result was “no binding”.

B5: SlFLS promoter probe WT (dsDNA)
DNA 1: CTTATATCACCTACTCAACTTA
DNA 2: TAAGTTGAGTAGGTGATATAAG
For the molecule B5, the binding result is “binds”.

B6: Cs4CL promoter probe WT (dsDNA)
DNA 1: TTAACTGCACCTACCACACCCA
DNA 2: TGGGTGTGGTAGGTGCAGTTAA
As to B6, the binding result is “binds”.
